Data published in article PMC4770226.

What was measured:
Ku70-5A/Ku80 heterodimer = Ku70-5A/Ku80 heterodimer (human, UniProt P12956;P13010 1-609;1-732, T305A;S306A;T307A;S314A;T316A;Ku70:); assay: pull-down
[1] = target: Ku70/Ku80 heterodimer, wild-type (human, UniProt P12956;P13010 1-609;1-732); assay: pull-down
Sequence of Ku70/Ku80 heterodimer, wild-type (P12956 whole entry, chain 1 of 2): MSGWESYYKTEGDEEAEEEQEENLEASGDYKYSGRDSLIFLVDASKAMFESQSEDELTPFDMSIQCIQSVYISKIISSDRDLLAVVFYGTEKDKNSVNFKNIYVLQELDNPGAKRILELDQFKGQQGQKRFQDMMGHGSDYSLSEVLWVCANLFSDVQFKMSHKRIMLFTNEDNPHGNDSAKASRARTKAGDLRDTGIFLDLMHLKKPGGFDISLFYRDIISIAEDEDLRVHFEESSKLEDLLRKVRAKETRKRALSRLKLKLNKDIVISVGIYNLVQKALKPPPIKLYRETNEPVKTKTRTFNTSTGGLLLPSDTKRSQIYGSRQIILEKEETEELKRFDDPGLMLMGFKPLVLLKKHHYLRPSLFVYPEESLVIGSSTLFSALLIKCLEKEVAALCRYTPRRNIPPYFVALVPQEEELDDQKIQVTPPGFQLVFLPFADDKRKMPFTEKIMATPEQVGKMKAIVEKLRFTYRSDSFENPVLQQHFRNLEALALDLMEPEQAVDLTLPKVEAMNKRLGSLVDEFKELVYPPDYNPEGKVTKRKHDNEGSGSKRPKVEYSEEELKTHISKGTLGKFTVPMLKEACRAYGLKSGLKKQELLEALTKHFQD
Sequence of Ku70/Ku80 heterodimer, wild-type (P13010 whole entry, chain 2 of 2): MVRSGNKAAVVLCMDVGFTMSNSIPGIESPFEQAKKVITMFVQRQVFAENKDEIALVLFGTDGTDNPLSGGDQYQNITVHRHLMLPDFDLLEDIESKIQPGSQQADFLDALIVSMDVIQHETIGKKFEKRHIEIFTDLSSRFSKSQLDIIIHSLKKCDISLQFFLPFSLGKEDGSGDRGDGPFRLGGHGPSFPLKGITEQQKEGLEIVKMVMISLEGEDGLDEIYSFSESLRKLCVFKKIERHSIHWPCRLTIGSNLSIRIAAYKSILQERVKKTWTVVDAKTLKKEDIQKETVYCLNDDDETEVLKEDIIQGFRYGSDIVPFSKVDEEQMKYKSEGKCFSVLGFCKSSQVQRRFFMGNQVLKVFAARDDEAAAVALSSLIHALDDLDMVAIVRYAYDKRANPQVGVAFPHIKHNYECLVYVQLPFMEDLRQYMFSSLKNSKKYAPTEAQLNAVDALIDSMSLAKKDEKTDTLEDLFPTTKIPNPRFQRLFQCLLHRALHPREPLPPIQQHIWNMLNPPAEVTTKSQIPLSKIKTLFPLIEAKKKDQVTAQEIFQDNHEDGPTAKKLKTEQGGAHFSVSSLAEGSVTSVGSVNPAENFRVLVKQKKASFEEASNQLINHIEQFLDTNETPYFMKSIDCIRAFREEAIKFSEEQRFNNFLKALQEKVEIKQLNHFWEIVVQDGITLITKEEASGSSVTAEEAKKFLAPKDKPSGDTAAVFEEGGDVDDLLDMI

Sequence of Ku70-5A/Ku80 heterodimer (P12956 whole entry T305A/S306A/T307A/S314A/T316A, chain 1 of 2): as the sequence (P12956 whole entry, chain 1 of 2) above, with T305A, S306A, T307A, S314A, T316A counted along it
Sequence of Ku70-5A/Ku80 heterodimer (P13010 whole entry, stated change not applied, chain 2 of 2): as the sequence (P13010 whole entry, chain 2 of 2) above

B1: biotin-labeled forked 22-mer dsDNA (dsDNA)
DNA 1: CGCGCCCAGCTTTCCCAGCTAATAAACTAAAAACTCCTAAGG
DNA 2: CCTTAGGAGTTTTTAGTTTATTGGGCGCG
B1: binds (Ku70-5A/Ku80 heterodimer); binds [1].
